Assays:
[1] = target: s-H1 Full-length R343Q (A/Brisbane/59/2007), monomeric form (influenza A virus H1N1), B4URD6; conditions: remark: other sources report otherwise
[2] = target: s-H1 Full-length R343Q (A/Brisbane/59/2007), trimeric form (influenza A virus H1N1), B4URD6; conditions: remark: other sources report otherwise

B1: CR6261 (antibody, V domains shown)
VH: EVQLVESGAEVKKPGSSVKVSCKASGGPFRSYAISWVRQAPGQGPEWMGGIIPIFGTTKYAPKFQGRVTITADDFAGTVYMELSSLRSEDTAMYYCAKHMGYQVRETMDVWGKGTTVTVSS
VL: QSVLTQPPSVSAAPGQKVTISCSGSSSNIGNDYVSWYQQLPGTAPKLLIYDNNKRPSGIPDRFSGSKSGTSATLGITGLQTGDEANYYCATWDRRPTAYVVFGGGTKLTVLG
BLI response [1]: 0.9 nm | BLI response [2]: 1.3 nm
